Source: PMC3219716, “Indirect DNA Readout by an H-NS Related Protein: Structure of the DNA Complex of the C-Terminal Domain of Ler”
Where a chain is given by its changes, count along the chain named. Names and notes keep the numbering of the source.

T1: CT-H-NS (UniProt P0ACF8 95-137)
T1 chain: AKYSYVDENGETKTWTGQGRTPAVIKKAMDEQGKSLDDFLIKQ

T2: CT-Ler (Escherichia coli EHEC O157:H7, UniProt Q7DB51 70-116)
T2 chain: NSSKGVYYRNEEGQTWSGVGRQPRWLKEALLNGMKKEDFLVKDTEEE

T3: CT-Ler R90G (Escherichia coli EHEC O157:H7, UniProt Q7DB51 70-116, R90G)
T3 chain: T2 chain with R21G

T4: CT-Ler R90Q (Escherichia coli EHEC O157:H7, UniProt Q7DB51 70-116, R90Q)
T4 chain: T2 chain with R21Q

B1: TATA 10-mer (dsDNA)
DNA 1: CGCTATAGCG
DNA 2: CGCTATAGCG
B2: AATT 10-mer (dsDNA)
DNA 1: CGCAATTGCG
DNA 2: CGCAATTGCG
B3: LeeFG (dsDNA)
DNA 1: AAATAATTGATAATA
DNA 2: TATTATCAATTATTT
B4: LeeH (WT) (dsDNA)
DNA 1: GCGATAATTGATACC
DNA 2: GGTATCAATTATCGC
B5: LeeH A7G (dsDNA)
DNA 1: GCGATAGTTGATACC
DNA 2: GGTATCAACTATCGC
B6: LeeH G10A (dsDNA)
DNA 1: GCGATAATTAATACC
DNA 2: GGTATTAATTATCGC
B7: LeeH A13G (dsDNA)
DNA 1: GCGATAATTGATGCC
DNA 2: GGCATCAATTATCGC
B8: LeeH A4G (dsDNA)
DNA 1: GCGGTAATTGATACC
DNA 2: GGTATCAATTACCGC
B9: LeeH T12C (dsDNA)
DNA 1: GCGATAATTGACACC
DNA 2: GGTGTCAATTATCGC
B10: LeeH A6G (dsDNA)
DNA 1: GCGATGATTGATACC
DNA 2: GGTATCAATCATCGC
B11: AAAT 10-mer (dsDNA)
DNA 1: CGCAAATGCG
DNA 2: CGCATTTGCG
B12: LeeH T9C (dsDNA)
DNA 1: GCGATAATCGATACC
DNA 2: GGTATCGATTATCGC
B13: AAAA 10-mer (dsDNA)
DNA 1: CGCAAAAGCG
DNA 2: CGCTTTTGCG
B14: LeeH T5C (dsDNA)
DNA 1: GCGACAATTGATACC
DNA 2: GGTATCAATTGTCGC
B15: LeeH A11G (dsDNA)
DNA 1: GCGATAATTGGTACC
DNA 2: GGTACCAATTATCGC
B16: LeeH T8C (dsDNA)
DNA 1: GCGATAACTGATACC
DNA 2: GGTATCAGTTATCGC
B17: AATA 10-mer (dsDNA)
DNA 1: CGCAATAGCG
DNA 2: CGCTATTGCG
B18: TTAA 10-mer (dsDNA)
DNA 1: CGCTTAAGCG
DNA 2: CGCTTAAGCG
B19: AATTC 10-mer (dsDNA)
DNA 1: CGGAATTCCG
DNA 2: CGGAATTCCG
B20: LeeG (dsDNA)
DNA 1: AAATAATTGATAATAATGTTTTTGTTACGT
DNA 2: ACGTAACAAAAACATTATTATCAATTATTT
B21: LeeF (dsDNA)
DNA 1: TTTCTTTTTTTATTGAAATAATTGATAATA
DNA 2: TATTATCAATTATTTCAATAAAAAAAGAAA

Biological target: T1, CT-H-NS
Assay: NMR titration (1H-15N HSQC); Anisotropy: 40 mM HEPES pH 7.5, 60 mM K-glutamate, 0.01% NaN3, 20 C; EMSA: 15 mM Na-phosphate pH 7.5, 100 mM NaCl, 0.01% NaN3, room temperature; NMR structure:
Conditions: protein: recombinant; tags: N-terminal His6 (pHAT2); blunt, self-complementary

Binder	Kd
B1	~102000 nM
B2	~41000 nM

Biological target: T2, CT-Ler
Assay: fluorescence anisotropy; deviates from 1:1 model, multiple binding suggested; Anisotropy: 40 mM HEPES pH 7.5, 60 mM K-glutamate, 0.01% NaN3, 20 C; EMSA: 15 mM Na-phosphate pH 7.5, 100 mM NaCl, 0.01% NaN3, room temperature; NMR structure:
Conditions: protein: recombinant; tags: N-terminal His6 (pHAT2); blunt

Binder	binding result
B3	binds

Biological target: T3, CT-Ler R90G
Assay: fluorescence anisotropy; Anisotropy: 40 mM HEPES pH 7.5, 60 mM K-glutamate, 0.01% NaN3, 20 C; EMSA: 15 mM Na-phosphate pH 7.5, 100 mM NaCl, 0.01% NaN3, room temperature; NMR structure:
Conditions: protein: recombinant; tags: N-terminal His6 (pHAT2); blunt

Binder	binding result
B4	no binding

Biological target: T2, CT-Ler
Assay: as above
Conditions: protein: recombinant; tags: N-terminal His6 (pHAT2); blunt

Binder	Kd
B5	2710 ± 320 nM
B6	2310 ± 70 nM
B7	1480 ± 90 nM
B8	1060 ± 80 nM
B9	1450 ± 100 nM
B10	2480 ± 200 nM
B11	6170 ± 360 nM
B12	1360 ± 80 nM
B13	8070 ± 220 nM
B4	1100 ± 50 nM
B14	1380 ± 110 nM
B15	1430 ± 40 nM
B16	1700 ± 130 nM
B17	11500 ± 960 nM

Same assay, conditions: protein: recombinant; tags: N-terminal His6 (pHAT2); blunt, self-complementary

Binder	Kd
B1	16600 ± 2200 nM
B18	22800 ± 2990 nM
B2	3450 ± 560 nM
B19	4140 ± 310 nM

Biological target: T4, CT-Ler R90Q
Assay: as above
Conditions: protein: recombinant; tags: N-terminal His6 (pHAT2); blunt

Binder	binding result
B4	no binding

Biological target: T2, CT-Ler
Assay: fluorescence anisotropy; among highest affinities; Anisotropy: 40 mM HEPES pH 7.5, 60 mM K-glutamate, 0.01% NaN3, 20 C; EMSA: 15 mM Na-phosphate pH 7.5, 100 mM NaCl, 0.01% NaN3, room temperature; NMR structure:
Conditions: protein: recombinant; tags: N-terminal His6 (pHAT2); blunt

Binder	binding result
B20	binds
B21	binds
